# Reference: patent US20190359693A1
# Columns and labels:
# Test in all cases: cell-based or functional assay
# [1] = molecular target: hemagglutinin (HA) of influenza A/WF/HK/MPA892/06 (H4) (influenza A virus)
# [2] = molecular target: hemagglutinin (HA) of influenza A/Brisbane/10/07 (H3N2) (influenza A virus)
# [3] = molecular target: hemagglutinin (HA) of influenza A/Eurasian Wigeon/MPG1884/09 (H6N1) (influenza A virus)
# [4] = molecular target: hemagglutinin (HA) of influenza A/HK/1174/99 (H3N2) (influenza A virus)
# [5] = molecular target: hemagglutinin (HA) of influenza A/Panama/2007/99 (H3N2) (influenza A virus)
# [6] = molecular target: hemagglutinin (HA) of influenza A/Mississippi/03/01 274H (H1N1) (influenza A virus)
# [7] = molecular target: hemagglutinin (HA) of influenza A/Aichi/2/68 (H3N2) (influenza A virus) (UniProt P03437)
# [8] = molecular target: hemagglutinin (HA) of influenza A/Common Teal/MPH11/08 (H10N3) (influenza A virus)
# [9] = molecular target: hemagglutinin (HA) of influenza A/Victoria/210/09 (H3N2) (influenza A virus)
# [10] = molecular target: hemagglutinin (HA) of influenza A/Vietnam/1194/04 (H5N1) (influenza A virus)
# [11] = molecular target: hemagglutinin (HA) of influenza A/Eurasian Wigeon/HK/MPF333/07 (H5N2) (influenza A virus)
# [12] = molecular target: hemagglutinin (HA) of influenza A/Netherlands/219/2003 (H7N7) (influenza A virus)
# [13] = molecular target: hemagglutinin (HA) of influenza A/Mallard/Astrakhan/263/1982 (H14N5) (influenza A virus)
# [14] = molecular target: hemagglutinin (HA) of influenza B/Lee/40 (Old) (influenza B virus) (UniProt P03460)
# Chain of hemagglutinin (HA) of influenza B/Lee/40 (Old) (influenza B virus) (P03460 16-584 limits assumed): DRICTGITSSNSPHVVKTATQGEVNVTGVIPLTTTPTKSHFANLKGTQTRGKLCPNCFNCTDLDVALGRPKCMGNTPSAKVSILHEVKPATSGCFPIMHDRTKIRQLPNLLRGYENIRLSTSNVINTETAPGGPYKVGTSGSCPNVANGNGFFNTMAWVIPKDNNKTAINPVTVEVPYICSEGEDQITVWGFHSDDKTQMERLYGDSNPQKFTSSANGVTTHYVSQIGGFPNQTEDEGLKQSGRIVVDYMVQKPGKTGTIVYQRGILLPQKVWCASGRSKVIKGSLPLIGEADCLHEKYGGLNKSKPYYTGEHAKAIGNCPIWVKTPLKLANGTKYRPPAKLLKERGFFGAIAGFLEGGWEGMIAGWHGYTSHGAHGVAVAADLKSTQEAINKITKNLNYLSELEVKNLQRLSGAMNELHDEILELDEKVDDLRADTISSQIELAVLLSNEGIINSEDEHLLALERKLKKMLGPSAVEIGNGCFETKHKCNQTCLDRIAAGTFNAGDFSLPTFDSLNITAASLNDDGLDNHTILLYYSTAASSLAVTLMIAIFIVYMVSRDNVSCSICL
# [15] = molecular target: hemagglutinin (HA) of influenza A/Env/MPJ1258/09 (H8N2) (influenza A virus)
# [16] = molecular target: hemagglutinin (HA) of influenza A/Northern Shoveler/MPE2531/08 (H10N9) (influenza A virus)
# [17] = molecular target: hemagglutinin (HA) of influenza A/Anhui/1/13 (H7N9) (influenza A virus)
# [18] = molecular target: hemagglutinin (HA) of influenza A/Brisbane/59/07 (H1N1) (influenza A virus)
# [19] = molecular target: hemagglutinin (HA) of influenza B/Brisbane/60/08 (Victoria) (influenza B virus)
# [20] = molecular target: hemagglutinin (HA) of influenza A/Northern Pintail/MPC2085/07 (H11N9) (influenza A virus)
# [21] = molecular target: hemagglutinin (HA) of influenza A/Eurasian Wigeon/MPD411/07 (H6N8) (influenza A virus)
# [22] = molecular target: hemagglutinin (HA) of influenza A/Common Teal/MPF139/07 (H7N7) (influenza A virus)
substance,measurement,setting,value
MD3606 (Fc fusion),Average neutralization titers,[1],3 nM
same,Average neutralization titers,[2],4.1 nM
same,Average neutralization titers,[3],11.6 nM
same,Average neutralization titers,[4],23 nM
same,Average neutralization titers,[5],40.5 nM
same,Average neutralization titers,[6],4.7 nM
same,Average neutralization titers,[7],32.2 nM
same,Average neutralization titers,[8],11.3 nM
same,Average neutralization titers,[9],6.5 nM
same,Average neutralization titers,[10],5.7 nM
same,Average neutralization titers,[11],7 nM
same,Average neutralization titers,[12],20.4 nM
same,Average neutralization titers,[13],12.9 nM
same,Average neutralization titers,[14],3.3 nM
same,Average neutralization titers,[15],3.9 nM
same,Average neutralization titers,[16],20.7 nM
same,Average neutralization titers,[17],38.2 nM
same,Average neutralization titers,[18],5.3 nM
same,"ADCC induction (EC50 grade, FcγRIIIa reporter bioassay)",[19],< 0.1 µg/mL
same,Average neutralization titers,[19],1 nM
same,Average neutralization titers,[20],7.2 nM
same,Average neutralization titers,[21],9.7 nM
same,Average neutralization titers,[22],26.3 nM
